The values that follow come from paper PMC6938348.

Like-named read-outs stand apart in the source and are kept apart here.

Assay [1] deals with Her2 on cells (SKOV3, JIMT-1, MCF7) (human (endogenous in SKOV3, JIMT-1, MCF7)) (UniProt P04626). The assay is described as follows: flow cytometry on cells; saturation binding of full-size antibodies on live low-Her2 MCF7 cells, 4°C 2 h, 0 to 200 nM or 1 μM, washed, anti-human Fc AlexaFluor488-(Fab')2 detection; apparent KD.
Assay [2] deals with soluble Her2 ectodomain (Homo sapiens (assumed; species and source not stated)) (UniProt P04626). The assay is described as follows: SPR; antibody captured on an anti-hFc CM-5 surface, soluble Her2 ectodomain flowed (monovalent binding); single cycle kinetics in duplicate, 25°C, PBS with […] EDTA and 0.05% Tween 20; 1:1 binding model; Biacore T200.
For assay [3], the target named is Her2 on cells (SKOV3, JIMT-1, MCF7) (human (endogenous in SKOV3, JIMT-1, MCF7)) (UniProt P04626). The assay is described as follows: flow cytometry on cells; saturation binding of full-size antibodies on live high-Her2 SKOV3 cells, 4°C 2 h, 0 to 200 nM or 1 μM, washed, anti-human Fc AlexaFluor488-(Fab')2 detection; apparent KD.
The target is the same in assay [4].
Assay [5] has the same target. This is another data set of the same source.
Assay [6] addresses Her2 (human (endogenous in SKOV3 and JIMT-1)) (UniProt P04626).
The target is the same in assay [7]. This is another data set of the same source.
For assay [8] the target is unchanged. The source holds these as a separate data set.
Assay [9] has the same target. This is another data set of the same source.
For assay [10] the target is unchanged. This is another data set of the same source.
For assay [11] the target is unchanged. The source holds these as a separate data set.
The target of assay [12] is Herceptin full-size antibody variant 7–5 (H-Y57A, L-F53N, L-Y92A). The assay is described as follows: SPR; antibody captured on an anti-hFc CM-5 surface, soluble Her2 ectodomain flowed (monovalent binding); single cycle kinetics in duplicate, 25°C, PBS with […] EDTA and 0.05% Tween 20; 1:1 binding model; Biacore T200.
Assay [13] addresses Herceptin full-size antibody variant 7–6 (H-Y57A, L-N30D). Described as above.
The target of assay [14] is bH1 full-size antibody variant 15–13 (H-G99D). The assay is described as above.
Assay [15] concerns the target bH1 full-size antibody variant 14–13 (H-D98W, H-G99D). Described as above.
In assay [16] the target is bH1 full-size antibody variant 16–13 (H-G99R). Described as above.

With “Herceptin full-size antibody variant 2–3 (L-F53N)”, the Kd came out at 0.3 nM in [1], 2.1 nM in assay [2] and 1.95 nM in assay [3].

With “Herceptin full-size antibody variant 2–4 (L-Y92A)”, the Kd in assay [1] is 0.39 nM; in [2], 2.32 nM; in [3] it was 1.98 nM.

In [4], “Herceptin full-size antibody variant 2–5 (L-F53N, L-Y92A)” yielded an IC50 of cytotoxicity, indirect ADC screen (DM1-conjugated secondary antibody), JIMT1 cells of 8.7 nM; an IC50 of cytotoxicity, indirect ADC screen (DM1-conjugated secondary antibody), MCF7 cells of 8.1 nM; an IC50 of cytotoxicity, indirect ADC screen (MMAE-conjugated secondary antibody), JIMT1 cells of 24.4 nM; an IC50 of cytotoxicity, indirect ADC screen (MMAE-conjugated secondary antibody), MCF7 cells of 20.6 nM. In assay [5], this substance had an IC50 of cytotoxicity, antibody directly conjugated to DM1, SKOV3 cells of 0.161 nM; an IC50 of cytotoxicity, antibody directly conjugated to PNU, MCF7 cells of 4.72 nM; an IC50 of cytotoxicity, antibody directly conjugated to PNU, SKOV3 cells of 0.138 nM. Also, the Kd in [2] is 22.6 nM. The Kd in assay [3] was 1.98 nM.

With “Herceptin full-size antibody variant 2–6 (L-N30D)”, the Kd in [1] was determined as 0.51 nM; in assay [2] it was 6.85 nM; in assay [3], 2.58 nM.

Consider “Herceptin full-size antibody variant 7-5 (H-Y57A, L-F53N, L-Y92A)”, for which, in [6], the EC50 of internalization, direct (pHAb-conjugated antibody variant), SKOV3 cells, 37°C, 18 h, high content imaging turned out to be 19.2 nM and the EC50 of internalization, indirect (antibody variant + pHAb-secondary antibody), SKOV3 cells, 37°C, 18 h, high content imaging was determined as 1.99 nM.

Turning to “Herceptin full-size antibody variant 7–1 (H-Y57A)”, the Kd in assay [1] is 0.52 nM; in assay [2], 1.6 nM; in [3] it was 2.27 nM.

With “Herceptin full-size antibody variant 7–3 (H-Y57A, L-F53N)”, the Kd was found to be 0.67 nM in [1], 16.1 nM in assay [2] and 2.34 nM in assay [3].

Turning to “Herceptin full-size antibody variant 7–4 (H-Y57A, L-Y92A)”, the Kd was 0.47 nM in assay [1], 18 nM in assay [2] and 2.41 nM in [3].

In assay [4], “Herceptin full-size antibody variant 7–5 (H-Y57A, L-F53N, L-Y92A)” yielded an IC50 of cytotoxicity, indirect ADC screen (DM1-conjugated secondary antibody), JIMT1 cells of 15.7 nM; an IC50 of cytotoxicity, indirect ADC screen (MMAE-conjugated secondary antibody), JIMT1 cells of 11000 nM; an IC50 of cytotoxicity, indirect ADC screen (MMAE-conjugated secondary antibody), MCF7 cells of 32.4 nM; an IC50 of cytotoxicity, indirect ADC screen (MMAE-conjugated secondary antibody), SKOV3 cells of 0.204 nM. In assay [5], this substance yielded an IC50 of cytotoxicity, antibody directly conjugated to DM1, SKOV3 cells of 2.01 nM and an IC50 of cytotoxicity, antibody directly conjugated to PNU, SKOV3 cells of 2.08 nM. The Kd in assay [1] amounted to 594 nM. In assay [3], the Kd worked out at 3.5 nM.

“Herceptin full-size antibody variant 7–6 (H-Y57A, L-N30D)”: the Kd was found to be 0.95 nM in [1] and 3.16 nM in assay [3].

As for “Herceptin full-size antibody variant 11-9 (H-D98F, H-D31M, L-D28K)”, in [7], the EC50 of internalization, direct (pHAb-conjugated antibody variant), JIMT-1 cells, 37°C, 18 h, high content imaging came to 70 pM; the EC50 of internalization, direct (pHAb-conjugated antibody variant), SKOV3 cells, 37°C, 18 h, high content imaging was 0.32 nM; the EC50 of internalization, indirect (antibody variant + pHAb-secondary antibody), SKOV3 cells, 37°C, 18 h, high content imaging worked out at 0.44 nM.

Consider “Herceptin full-size antibody variant 12-9 (H-D98F, H-D31K, L-D28K)”, for which, in assay [8], the EC50 of internalization, direct (pHAb-conjugated antibody variant), JIMT-1 cells, 37°C, 18 h, high content imaging worked out at 70 pM; the EC50 of internalization, direct (pHAb-conjugated antibody variant), SKOV3 cells, 37°C, 18 h, high content imaging is 0.41 nM; the EC50 of internalization, indirect (antibody variant + pHAb-secondary antibody), SKOV3 cells, 37°C, 18 h, high content imaging is 0.41 nM.

Turning to “WT Herceptin full-size antibody (variant 2-1, Parent 1)”, in assay [9], the EC50 of internalization, direct (pHAb-conjugated antibody variant), JIMT-1 cells, 37°C, 18 h, high content imaging came out at 0.21 nM; the EC50 of internalization, direct (pHAb-conjugated antibody variant), SKOV3 cells, 37°C, 18 h, high content imaging was determined as 0.32 nM; the EC50 of internalization, indirect (antibody variant + pHAb-secondary antibody), SKOV3 cells, 37°C, 18 h, high content imaging is 0.55 nM.

Take “bH1 full-size antibody variant 14-13 (H-D98W, H-G99D)”: in assay [10], the EC50 of internalization, direct (pHAb-conjugated antibody variant), SKOV3 cells, 37°C, 18 h, high content imaging was 59 nM and the EC50 of internalization, indirect (antibody variant + pHAb-secondary antibody), SKOV3 cells, 37°C, 18 h, high content imaging was determined as 3.75 nM.

Turning to “bH1 full-size antibody variant 16-13 (H-G99R)”, in assay [11], the EC50 of internalization, direct (pHAb-conjugated antibody variant), SKOV3 cells, 37°C, 18 h, high content imaging was determined as 74.9 nM.

For “soluble Her2 ectodomain (from UniProt P04626 23-652) (domain or fragment)”, the Kd was found to be 68.1 nM in assay [12]; 43.2 nM in assay [13]; 298 nM in assay [14]; 253 nM in assay [15]; 417 nM in assay [16]. The figures for the association rate constant (kon) in assay [15] and in assay [16] were 78000 M⁻¹ s⁻¹ and 120000 M⁻¹ s⁻¹, respectively.
